# Data published in patent US10239925B2, “Peptides and combination of peptides for use in immunotherapy against ovarian cancer and other cancers” (IMMATICS BIOTECHNOLOGIES GMBH, priority 2015, dated 2019).
# Biological target: HLA-A*02:01 (Homo sapiens, UniProt P04439, D140Y/D185E/D98H/E176V/E277Q/G131W/G231S/I119V/I121R/I166T/I218V/L300P/L318F/N151K/N90K/P208A/P217A/Q86G/Q94H/R138H/R169H/T345S)
# Assay: MHC binding assay (UV-ligand exchange, anti-β2m ELISA, peptide exchange yield)
# Conditions: binding to HLA-A*02:01
# Excerpt: Candidate peptides for T cell based therapies according to the present invention were further tested for their MHC binding capacity (affinity). The individual peptide-MHC complexes were produced by UV-ligand exchange, where a UV-sensitive peptide is cleaved upon UV-irradiation, and exchanged with the peptide of interest as analyzed. Only peptide candidates that can effectively bind and stabilize the peptide-receptive MHC molecules prevent dissociation of the MHC complexes. To determine the yield of the exchange reaction, an ELISA was performed based on the detection of the light chain (β2m) of stabilized MHC complexes. The assay was performed as generally described in Rodenko et al. (Rodenko et al., 2006).
# 96 well MAXISorp plates (NUNC) were coated over night with 2 ug/ml streptavidin in PBS at room temperature, washed 4× and blocked for 1h at 37° C. in 2% BSA containing blocking buffer. […] Peptide-MHC monomers of the UV-exchange reaction were diluted 100 fold in blocking buffer. Samples were incubated for 1 h at 37° C., washed four times, incubated with 2 ug/ml HRP conjugated anti-β2m for 1h at 37° C., washed again and detected with TMB solution that is stopped with […]. Absorption was measured at 450 nm. Candidate peptides that show a high exchange yield (preferably higher than 50%, most preferred higher than 75%) are generally preferred for a generation and production of antibodies or fragments thereof, and/or T cell receptors or fragments thereof, as they show sufficient avidity to the MHC molecules and prevent dissociation of the MHC complexes.
row,"Peptide exchange (MHC class I binding score, peptide exchange yield)",Substance
1,“+++” (>50 = +++),155 (RVANLHFPSV; listed as Homo sapiens) [compound 155]
2,“+++” (>50 = +++),158 (KLFDVDEDGYI; listed as Homo sapiens) [compound 158]
3,“++++” (>75% = ++++),159 (GLVGNPLPSV; listed as Homo sapiens) [compound 159]
4,“+++” (>50 = +++),160 (FLFDEEIEQI; listed as Homo sapiens) [compound 160]
5,“+++” (>50 = +++),161 (ALLEGVNTV; listed as Homo sapiens) [compound 161]
6,“+++” (>50 = +++),162 (YQQAQVPSV; listed as Homo sapiens) [compound 162]
7,“+++” (>50 = +++),163 (ALDEMGDLLQL; listed as Homo sapiens) [compound 163]
8,“+++” (>50 = +++),164 (ALLPQPKNLTV; listed as Homo sapiens) [compound 164]
9,“+++” (>50 = +++),165 (SLLDEIRAV; listed as Homo sapiens) [compound 165]
10,“+++” (>50 = +++),167 (KVLEVTEEFGV; listed as Homo sapiens) [compound 167]
11,“++++” (>75% = ++++),168 (KILDADIQL; listed as Homo sapiens) [compound 168]
12,“+++” (>50 = +++),169 (NLPEYLPFV; listed as Homo sapiens) [compound 169]
13,“+++” (>50 = +++),170 (RLQETLSAA; listed as Homo sapiens) [compound 170]
14,“+++” (>50 = +++),171 (LLLPLQILL; listed as Homo sapiens) [compound 171]
15,“++” (>20% = ++),172 (VLYSYTIITV; listed as Homo sapiens) [compound 172]

# Further lines, the substance ahead of its results:
row,Substance,"Peptide exchange (MHC class I binding score, peptide exchange yield)"
1,139 (SVMEVNSGIYRV; listed as Homo sapiens) [compound 139],“+++” (>50 = +++)
2,140 (YMDAPKAAL; listed as Homo sapiens) [compound 140],“++” (>20% = ++)
3,142 (FLFATPVFI; listed as Homo sapiens) [compound 142],“+++” (>50 = +++)
4,144 (YIMEPSIFNTL; listed as Homo sapiens) [compound 144],“+++” (>50 = +++)
5,145 (FLATSGTLAGI; listed as Homo sapiens) [compound 145],“++” (>20% = ++)
6,146 (SLATAGDGLIEL; listed as Homo sapiens) [compound 146],“++” (>20% = ++)
7,147 (SLLEAVSFL; listed as Homo sapiens) [compound 147],“+++” (>50 = +++)
8,148 (ALNPEIVSV; listed as Homo sapiens) [compound 148],“++” (>20% = ++)
9,149 (NLLELFVQL; listed as Homo sapiens) [compound 149],“+++” (>50 = +++)
10,151 (KILQQLVTL; listed as Homo sapiens) [compound 151],“+++” (>50 = +++)
11,153 (FLIANVLYL; listed as Homo sapiens) [compound 153],“+” (>10% = +)
12,154 (ALDDGTPAL; listed as Homo sapiens) [compound 154],“++” (>20% = ++)
